How the values were obtained:
[1] = biological target: T1, F. solani cutinase (Fusarium vanettenii, UniProt P00590); test: p-nitrophenol release, absorbance at […] nm; format: biochemical; conditions: 20 mM Tris-HCl pH 8, 10 mM NaCl, 10% acetonitrile (standard assay); temperature not given
T1 construct: gene CUT1; codon-optimised ORF, His-tagged, pET30f, E. coli BL21(DE3), sarkosyl extraction, Ni-NTA purified; 24-30 kDa on SDS-PAGE

[2] = test system: CCCC(=O)Oc1ccc([N+](=O)[O-])cc1; test: purified protein; conditions: 20 mM Tris-HCl pH 8, 10 mM NaCl, 10% acetonitrile (standard assay), temperature not given

T1 sequence (P00590 32-230): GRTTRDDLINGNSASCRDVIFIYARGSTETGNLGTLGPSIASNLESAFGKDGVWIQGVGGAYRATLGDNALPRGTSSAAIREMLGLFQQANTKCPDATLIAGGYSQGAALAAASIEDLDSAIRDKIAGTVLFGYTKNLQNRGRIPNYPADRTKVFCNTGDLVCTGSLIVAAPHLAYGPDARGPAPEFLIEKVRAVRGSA

| Compound | Km [1] | Km [2] | kcat [2] |
| --- | --- | --- | --- |
| CCCC(=O)Oc1ccc([N+](=O)[O-])cc1 [p-nitrophenyl butyrate] | 1260 ± 60 µM | – | – |
| A. brassicicola cutinase (Alternaria brassicicola) | – | 870 ± 50 µM | 12 ± 0.80 s⁻¹ |

Source: paper PMC6306009, “Combined use of cutinase and high-resolution mass-spectrometry to query the molecular architecture of cutin” (Plant Methods, 2018)
